Read-outs that look alike come from different tables or passages of the source.
Legend:
Ol1WSCP [1] = experiment: SEC
Ol1WSCP [2] = experiment: SEC; remark: listed apart in the source

For Ol1WSCP (natural protein), the stoichiometry N (Ol1WSCP [1]) was 4 and the stoichiometry N (Ol1WSCP [2]) was 4.
